Reference: US20230250176A1 (DRAGONFLY THERAPEUTICS, published 2023)

What was measured:
[1] = target: T1, human EGFR (wild type) on cells (human, UniProt P00533 25-1210); assay: flow cytometry, FaDu cells
T1 construct: whole, on cells; also called EGFRwt

cynomolgus monkey FcRn = cynomolgus monkey FcRn (cynomolgus monkey, UniProt Q8SPV9 24-297; Q8SPW0 21-119, limits assumed); assay: SPR, pH 6.0; pH 6.0
[2] = target: T1, human EGFR (wild type) on cells; assay: flow cytometry, KYSE-30 cells
[3] = target: T2, cynomolgus monkey NKG2D on NK cells (cynomolgus monkey, UniProt P61252 1-216); assay: cell-based or functional assay
T2 sequence (looked up): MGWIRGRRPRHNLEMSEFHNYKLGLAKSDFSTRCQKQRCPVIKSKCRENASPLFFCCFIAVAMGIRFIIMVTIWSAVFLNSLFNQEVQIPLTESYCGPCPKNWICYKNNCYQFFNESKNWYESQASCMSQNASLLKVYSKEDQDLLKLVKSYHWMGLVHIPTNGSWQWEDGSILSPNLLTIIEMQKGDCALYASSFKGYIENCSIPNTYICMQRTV

[4] = target: human EGFR T790M, L858R on NCI-H1975 cells (human, UniProt P00533 25-1210); assay: cell-based or functional assay
[5] = target: T1, human EGFR (wild type) on cells; assay: cell-based or functional assay
[6] = target: T1, human EGFR (wild type) on cells; assay: flow cytometry, 786-O cells
[7] = target: T3, purified recombinant human NKG2D (human, UniProt P26718 78-216, limits assumed); assay: SPR (Biacore 8K), 25 C
T3 sequence (looked up): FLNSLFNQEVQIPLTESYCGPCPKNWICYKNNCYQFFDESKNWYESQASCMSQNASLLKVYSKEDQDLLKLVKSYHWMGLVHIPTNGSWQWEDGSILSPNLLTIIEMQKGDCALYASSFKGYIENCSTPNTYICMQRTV

[8] = target: T1, human EGFR (wild type) on cells; assay: flow cytometry, MDA-MB-453 cells
[9] = target: T1, human EGFR (wild type) on cells; assay: flow cytometry, HT29 cells
[10] = target: T4, purified recombinant human FcγRIIIa V158 (human, UniProt P08637 17-208); assay: SPR (Biacore 8K), 25 C
T4 construct: also called human CD16 V158; CD16a

[11] = target: T5, purified recombinant human FcγRIIa H131 (human, UniProt P12318 36-218, limits assumed); assay: SPR (Biacore 8K), 25 C
T5 sequence (looked up): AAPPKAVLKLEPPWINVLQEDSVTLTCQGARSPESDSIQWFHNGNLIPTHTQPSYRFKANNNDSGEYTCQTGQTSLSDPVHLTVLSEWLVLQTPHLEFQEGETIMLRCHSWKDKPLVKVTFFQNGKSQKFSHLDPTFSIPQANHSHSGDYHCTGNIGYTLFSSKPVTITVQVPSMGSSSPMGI

[12] = target: purified recombinant human FcγRI (human, UniProt P12314 16-288, limits assumed); assay: SPR (Biacore 8K), 25 C
cynomolgus monkey CD16a = target: T6, cynomolgus monkey CD16a (cynomolgus monkey, UniProt Q8SPW2 17-208, limits assumed); assay: SPR
T6 construct: also called cynomolgus monkey FcγRIIIa

recombinant mouse NKG2D = target: T7, recombinant mouse NKG2D (mouse, UniProt O54709 94-232, limits assumed); assay: SPR
T7 sequence (looked up): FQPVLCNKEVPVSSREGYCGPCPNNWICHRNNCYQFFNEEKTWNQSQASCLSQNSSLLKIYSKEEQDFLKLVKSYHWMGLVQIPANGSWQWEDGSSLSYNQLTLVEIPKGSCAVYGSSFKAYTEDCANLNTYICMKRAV

[13] = target: T3, purified recombinant human NKG2D; assay: SPR
[14] = target: T8, recombinant cynomolgus monkey NKG2D (cynomolgus monkey, UniProt P61252 78-216, limits assumed); assay: SPR
T8 sequence (looked up): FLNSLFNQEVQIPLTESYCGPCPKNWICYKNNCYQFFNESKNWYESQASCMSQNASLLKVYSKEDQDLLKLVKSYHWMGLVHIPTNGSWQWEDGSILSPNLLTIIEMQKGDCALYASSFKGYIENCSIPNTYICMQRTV

recombinant rat NKG2D = target: T9, recombinant rat NKG2D (rat, UniProt O70215 75-215, limits assumed); assay: SPR
T9 sequence (looked up): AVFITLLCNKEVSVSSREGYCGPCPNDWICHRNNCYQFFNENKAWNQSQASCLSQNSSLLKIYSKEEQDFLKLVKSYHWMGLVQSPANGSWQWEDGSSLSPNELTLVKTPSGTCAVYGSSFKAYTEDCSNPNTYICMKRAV

[15] = target: purified recombinant cynomolgus monkey EGFR (cynomolgus monkey, UniProt A0A2K5WK39 25-645); assay: SPR (Biacore 8K), 37 C
[16] = target: purified recombinant mouse EGFR (mouse, UniProt Q01279 25-647, limits assumed); assay: SPR (Biacore 8K), 37 C
[17] = target: purified recombinant rat EGFR (rat, UniProt A0ABK0LZB0 35-651); assay: SPR (Biacore 8K), 37 C
[18] = target: T10, purified recombinant human EGFR (human, UniProt P00533 25-645); assay: SPR (Biacore 8K), 37 C
T10 construct: the whole entry is named; also called recombinant human epidermal growth factor receptor

EC50 [1]: 11 nM | Max FOB [1]: 1200 fold over background | Kd (cynomolgus monkey FcRn): 900 nM | EC50 [2]: 11 nM | Max FOB [2]: 1800 fold over background | EC50, NK cell degranulation and cytokine production, cynomolgus monkey PBMCs with 786-O [3]: 0.023 nM | EC50, NK cell degranulation and cytokine production, cynomolgus monkey PBMCs with NCI-H1975 [3]: 0.037 nM | EC50, NK cell degranulation and cytokine production, human PBMCs with NCI-H1975 [4]: 0.067 nM | EC50, NK cell degranulation and cytokine production, human PBMCs with 786-O [5]: 0.089 nM | EC50 [6]: 3.5 nM | Max FOB [6]: 330 fold over background | Kd [7]: 482 nM | koff [7]: 0.11 s⁻¹ | kon [7]: 230000 M⁻¹ s⁻¹ | EC50 [8]: 0.33 nM | Max FOB [8]: 5 fold over background | EC50 [9]: 1.3 nM | Max FOB [9]: 340 fold over background | Kd [10]: 53.8 nM | koff [10]: 0.011 s⁻¹ | kon [10]: 200000 M⁻¹ s⁻¹ | Kd [11]: 1000 nM | Kd [12]: 5.6 nM | koff [12]: 0.00024 s⁻¹ | kon [12]: 42000 M⁻¹ s⁻¹ | Kd (cynomolgus monkey CD16a): 80.9 nM | binding result (recombinant mouse NKG2D): no binding | Kd [13]: 482 nM | Kd [14]: 562 nM | binding result (recombinant rat NKG2D): no binding | Kd [15]: 5.9 nM | koff [15]: 0.001 s⁻¹ | kon [15]: 180000 M⁻¹ s⁻¹ | binding result [16]: no binding | binding result [17]: no binding | Kd [18]: 4.7 nM | koff [18]: 0.00095 s⁻¹ | kon [18]: 200000 M⁻¹ s⁻¹
B1: EGFR-TriNKET (bispecific antibody, human IgG1, kappa)
chain: DIQMTQSPSSLSASVGDRVTITCQASQDISNYLNWYQQKPGKAPKLLIYDASNLETGVPSRFSGSGSGTDFTFTISSLQPEDIATYYCQHFRHLPLAFGCGTKVEIKGGGGSGGGGSGGGGSGGGGSQVQLQESGPGLVKPSETLSLTCTVSGGSVSSGDYYWTWIRQSPGKCLEWIGHIYYSGNTNYNPRLKSRLTISIDTSKTQFSLKLSSVTAADTAIYYCVRDRVTGAFDIWGQGTMVTVSSGSDKTHTCPPCPAPELLGGPSVFLFPPKPKDTLMISRTPEVTCVVVDVSHEDPEVKFNWYVDGVEVHNAKTKPREEQYNSTYRVVSVLTVLHQDWLNGKEYKCKVSNKALPAPIEKTISKAKGQPREPRVYTLPPCRDELTKNQVSLTCLVKGFYPSDIAVEWESNGQPENNYKTTPPVLVSDGSFTLYSKLTVDKSRWQQGNVFSCSVMHEALHNHYTQKSLSLSPG
heavy: EVQLVESGGGLVKPGGSLRLSCAASGFTFSSYSMNWVRQAPGKGLEWVSSISSSSSYIYYADSVKGRFTISRDNAKNSLYLQMNSLRAEDTAVYYCARGAPIGAAAGWFDPWGQGTLVTVSSASTKGPSVFPLAPSSKSTSGGTAALGCLVKDYFPEPVTVSWNSGALTSGVHTFPAVLQSSGLYSLSSVVTVPSSSLGTQTYICNVNHKPSNTKVDKKVEPKSCDKTHTCPPCPAPELLGGPSVFLFPPKPKDTLMISRTPEVTCVVVDVSHEDPEVKFNWYVDGVEVHNAKTKPREEQYNSTYRVVSVLTVLHQDWLNGKEYKCKVSNKALPAPIEKTISKAKGQPREPQVCTLPPSRDELTENQVSLTCLVKGFYPSDIAVEWESNGQPENNYKTTPPVLDSDGSFFLYSWLTVDKSRWQQGNVFSCSVMHEALHNHYTQKSLSLSPG
light: DIQMTQSPSSVSASVGDRVTITCRASQGISSWLAWYQQKPGKAPKLLIYAASSLQSGVPSRFSGSGSGTDFTLTISSLQPEDFATYYCQQGVSFPRTFGGGTKVEIKRTVAAPSVFIFPPSDEQLKSGTASVVCLLNNFYPREAKVQWKVDNALQSGNSQESVTEQDSKDSTYSLSSTLTLSKADYEKHKVYACEVTHQGLSSPVTKSFNRGEC
notes: also called EGFR-TriNKET-3
